Data as given in the nanobody polyreactivity screen of Harvey et al. (2022).

Test: yeast display, Sf9 membrane polyspecificity reagent, FACS + sequencing; frameworks hold sequencing errors
In short: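 Galactose-induced (36–48 hours) yeast carrying a synthetic nanobody display library were exposed to 10% biotinylated, detergent-solubilized Sf9 membrane reagent at 4 °C for 1 hour. FACS followed streptavidin microbead enrichment, using low and high (top ~1%) gates for expression (anti-HA) and reagent binding (streptavidin). Colony PCR, MiSeq 2 × 250 sequencing and CDR-length filtering followed. Labels for polyreactivity reflect the gate of origin.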

Sequence	polyreactivity (PSR sort gate)
QVQLVESRGGLVQAGGSLRLSCAASGSIFLSYAMGWYRQAPGKERELVADISRSGGSTYYADSVKGRFTISRDNAKNTVYLQMNSLKPEDTAVYYCAVYIAVYEGDYWGQGSQVTVSS	low polyreactivity
QVQIVESGGGLVQARGSLRLSCAASGFIFGSYASGWYRQAPGKERELVAAISWNGDSTYYADSVKGRFTISRDNAKITVYLQMNSLKPEDTAVYYCNAVDVFLYQTDGLGDYWGQGTQVTVSS	low polyreactivity
QVQLVESGGGLVQAGGSLRLSCAAYGRIFYAYAMGWYRQAPGKERELVAAITNGGGTTYYADSVKGRFTISRDNAKNTVYLQMNSLKPEDTAVYYCNAVRYTIAHGFYYVPEDYWGQGTQVTVSS	low polyreactivity
QVQLVESGGGLVQAGGSLRLSCAASGFIFTKYTMGWYRQAPGKERELVAAITGRGTSTYADSVKGRFTISRDNAKNTVYLQMNSLKPEDTAVYYCAAVGWFADFLFSDINGYYWGQGTQVTVSS	low polyreactivity
QVQLVESGGGLVQAGGSLRLSCAASGNIFRTYAMGWYRQAPGKERELVAAISRGGRTYYADSVKGRFTISRDNAKNSVYLQMNSLKPVDTAVYYCNVQPDRISRYDYWGQGTQVTVSS	high polyreactivity
QVQLVDSVGGLVQAGASLRLSCAASGSIFYYYAMGWYREAPGKERELVAAIRYRGGRTYYADSVKGRFTISRDNAKNTVYLQMNSLKPEDTAVYYCNADVIRRGGSRYSSGRDFDYWGQGTQVTVSS	high polyreactivity
QVQLVESGGGLVQAGGSLRLSCAASGNIFVNYAMGWYRQAPGKERELVASINYNGGNTYYADSVKGRFTISRDNAKNTVYLQMNSLKPEDTAVYYCAKDGGGLLRWYTDEYDYWGQGTQVNVSS	low polyreactivity
QVQLVESGGGLVQAGGSLRLSCAASGRTLDWNAMGWYRQAPGKERELVAAISWSGDSTYYADSVKGRFTISRDNAKNTVYLQMNSLKPEDTAVYYCAARYGRSWGRGYGYWGQGTQVTVSS	low polyreactivity
QVQLVESGGGLVQAGGSLRLSCAASGSTFAANTMGWYRQAPGKERELVAAITVRGGSTYYADSVKGRFTISRDNAKNTVYLQMNSLKPEDTAGYYGAAERPPYGYLVVGYVSTQYYYWGQGTQVTVSS	low polyreactivity
QVQLVESGGGLVQAGGSLRLSCAASGSTFRANAMGWYRQAPGKERELVAAITSGGSTNYADSVKGRFTISRDNAKNTVYLQMNCLKPEDTAVYYCADESYQEHSFYVYYGYDYWGQGTQVTVSS	low polyreactivity
QVQIEESGGGLVQAGGSLRLSCAASGFIFVWYAMGWYRQAPGKERELVAAISRDGDTNYADSVKGRFTISRDNAKNTVYLQMNSLKPEDTAVDYCARTYIYSGRIYNYGYWGQGTQVTVSS	high polyreactivity
QVQLVESGGGLVQAGGSLRLSCAASRSTFNYYTMGWYRQAPGKERELVAAISRGGSTYYADSVKGRFTISRDNAKNTVYLQMNSLKPEDTAVYYCAATVYPRYFRKYDYWGQGTQVTVSS	high polyreactivity
QVQLVESGGGLVQAGGSLRLSCAASGFIFYRNAMGWYRQAPGKERELVAAISQRGGRTYADSVKGRFTISRDNAKNTVYLQMNSLKPEDTAFYYCAADGARLSQTTRRFDYWGQGTQVTVSS	low polyreactivity
QVQLVESGGGLVQAGGSLRLSCDASGSIFYDNAKGWYRQAPGKERELVATIRGGGNTYYADSVKGRFTISRDNAKNTVYLQMNSLKPEDTAVNYCAKQSDFPVVPLVYGVYGYDYWGQGTQVTVSS	low polyreactivity
QVQLLESAGGLVQAGGSLRLSCAASGTIGYNGWYRQAPGKERELVAAISTRDGSTYYADSVKGRFTISRDNAMNTGYLQINSLKPEDTAVYYCAARYPSDYDYWGQGTQVTVSS	low polyreactivity
QVQLVESGGGLFQAGGSLRLSCAPSGSNFSIYAMGWYRQAPGKERELVAAITWGGGSTYYADSVKGRFTISRDNAKNTVYLQMNSLKPEETAVYDCAADSLTWYGTYYYWGQGTQVTVSS	high polyreactivity

Sequence	polyreactivity (PSR sort gate)
HVQLVESGGGLVQAGGSLRLSCAAWSIFYLNAMGWYRQAPGKERELVAAISSAGSTYYADSVKGRFTISRDNAKNTVYLQMNSLKPEDTAVYYCAAYWYDSPGVTEIWYDYWGQGTQVTVSS	low polyreactivity
QVQLVESGGGLVQAGGSLRLSCAASGFIFDFYTMGWYRQAPGKERELVAAITNAGSTYYADSVKGRFTISRDNAMNTFYLHMNSLKPEDTAVYYCAAYYRSRHHGYDSWGQGTQVTVSS	low polyreactivity
QVQLVESGGGLVQAGGSLRLSCAASGSTFDAYAMGWYRQAPGKERELVAAITNAGSTNYADSVKGRFTISRDNAKNTVYLQMNSLKPEDTAVYYCATDWYHRYLDGRYDYWGQGTQVTVSS	low polyreactivity
QVQLVETAAGLVKSGGSLPLSCAASGRIFKRYAMGWYRQAPGQARELVATINLSCGSTYYADSVKGRFTISRDNAKNTGYLQMNSRKPEDTAVYYCAYDAAGAPEGPYDYWGQGTQVTVSS	high polyreactivity
QVQLVESGGGLVQAGGSLRLICAASGSIFHVNSMGWYRQAPGKERELVAGISDGGSTYYADSVKGRFTISRDNAKNTVYLQMNSLKPEDTAVSYCAAESEQWYSYVLSYDWEYDYWGQGTHVTVSS	low polyreactivity
QVQLVESGVGLVQAGGSLRLSCAASGSTFVWYAMGWYRQAPGKERELVAVIDWSGGSTSYADSVKGRFTISRDNAKNTVSFQMNSLKPEDTAVYYCAAQQGVISRGNYWGQGTQVTVSS	low polyreactivity
QVQLVESGGGLVQAGGSLRLSCAASGSIFDSNAMGWYRQAPGKERELVADIRGIGGSTYYADSVKGRFTISRDNAKNTVYLQMNSLKPEDTAVYYCNTSTLGGYYWGQGTQVTVSS	low polyreactivity
QVQLVESGGGLVQAGGSLRLSSAASGFTLSRYAMGWYRQAPGKERELVASITSGGSTNYADSVKGRFTISRDNAKNTVYLQMNSLKPEDTAVYYCAARYPYRSYKLSHSYARPYGYWGQGTQVTVSS	high polyreactivity
QVLLQESGGGLVQPGGSLLLSCAASGNIFSAGGMGWYRQAPVNEPELVAGIGTGTSTNYADSVKGRFTISRDNAKNTVFLQMNSLNPEDTAVYYCAAAYYSGLSHWYWGQGTQVTVSS	low polyreactivity
QVQLVESAGGLVQAGGSLSLSCAASGRIFYSYAMGWYRQAPGKERELVAAISSAGSTYYADSVKGRFTMSRDNEKNTVYLQTNSLKPEDTAVYYCAAYRAGNSYYPRLNYWGQGTQVTVSS	high polyreactivity
QVQLVESGGGLVQAGGSLRLSCAASGYIFGSNAMGWYRQAPGKDRELVAGISNNGGSTYYADSVKGRFTISRDKAKNTVYLQMNSLKPEDTAVYYCARDPNDDNSFPYDYWGQGTQVTVSS	low polyreactivity
QVQLVESGGGLVQAGGSLRLSCAASGSIFGDNAMGWYRQAPGKERELVAAISGSTGSTNYADSVKGRFTISRDNAKNTVYLQMNSLKPEDTAVYYCNVGGLEYFVFKGVSVPDDYWGQGTQVTVSS	low polyreactivity
QVQLVESGGGLVQAGGSLRLSCAASGSIFDPYGMGWYRQAPGKERELVAAISSSDGSTYYADSVKGRFTISRDNAKNTVYLQMNSLKPEDTAVYFCAAETYGTNSSNTVYRWKYDYWGQGTQVTVSS	low polyreactivity
QVQLVESGGGFVQAGGSLRLSCAASGRIFRLYAMGWYRQAPGKEREFVAAITFSGGRTYYADSVKGRFTISRDNAKNNVYLQMNSLKPEDTAVYYCAARGQTGYYSGVGYWGQGTQVTVSS	high polyreactivity
QVQLVESGGGLVQAGGSLRLSCAASGRISSIYAMGCYRQAPGKERELVATISVRTTGTYYADSVKGRFTISRDNAKNTVYLQMNSLKPEDTAVYYCAAAKRRGYYVKYDYWGQGTQVTVSS	high polyreactivity
